In the DeepSol protein solubility set:

Assay: soluble on expression in E. coli; label from the status in PepcDB or PDB records

Sequence | soluble on expression in E. coli
MNEIIMLLRTIPTSKLIQPIMQLFIDNAILNIVQNDALLIEKATHARNHLRLWSLQGHRDIPNLEHHHHHH | not soluble
MDALAIINKYYPEDNELKHILLAHSRSVADKALWIAGKHPELNLDKQFLEEAAMLHDIGIFMTDAEGICCFGSYPYICHGYLGADLMRKEGFPRHALVCERHTGAGMSLQSIIDQQLPVPHRNMVPVSLEEQVICFADKFFSKTHLDREKSVEKALKSISRYGEDGIIRFNHWCECFL | soluble
MGGWSNFKFLFLSPGGELYGVLNDKIYKGTPPTHDNDNWLGRAKKIGDGGWNQFQFLFFDPNGYLYAVSKDKLYKAPPPQSDTDNWIARATEIGSGG | soluble
MAHHHHHHMMRIPPLVVCGPSGVGKGTLIKRLLGEFPSLFRFSISCTTRKKREKEMDGVDYYFVDKEDFEQKIKEEQFLEYDNYANNFYGTLKSEYDIAAGENKICLLEMNINGVKQLKESKHIEDGIYIFVKPPSIEILLKRLKNRNTENPEEIKKRMQELTREMDEADKVGFNYIIVNDDLARTYGELRKYLLGSYPQLGGA | soluble
QNFAIPTSSLEKTLLIGDYLFVSKLSYGPRSPMTPLGVPLTHNTMPLTGGKSFSDKPLLPYKRLKGFGHVKEGDLVVFNFPAGDTVAVKQPNPDYYMWKKLVGREELWSNPDFYGEIVYRPVDRRDHYVKRCVGMPGQELSIRNNQIYIDGKEQRNPRNMQLNYLVRMSREMSVDLIDELGISYDDVRAASSEELKASVGSNLIDSASNQPQIIYHLPLTQGMLDKLQAEPSFVKAVEEPTPIGPLYPLEYETGWTRDNYGPIVIPAKGMTVRLTPLNLALYSRCIRNFEGNKLVQKADGTVLINGRPADSYTFKMDY | not soluble
MKKVFDVWDVETAKRFLEIIKDEPIYYPALIALHTGMRAGEILSLKWCDVNFETRVISIVKSERKNRGLKTVNLKTKTSKRAVYMNDILYKELKNLYEITKPKPDDFVCPRLPTGNLTVNYLSRKFKKLVKKHNFPLIRFHDLRHTFATLMLSLGVNTKIVAEILGHSDIKLTADTYSHVLPTMQEEAMKEFVKLWKLEHHHHHH | soluble
MGSSHHHHHHGSTKYALVGDVGGTNARLALCDIASGEISQAKTYSGLDYPSLEAVIRVYLEEHKVEVKDGCIAIACPITGDWVAMTNHTWAFSIAEMKKNLGFSHLEIINDFTAVSMAIPMLKKEHLIQFGGAEPVEGKPIAVYGAGTGLGVAHLVHVDKRWVSLPGEGGHVDFAPNSEEEAIILEILRAEIGHVSAERVLSGPGLVNLYRAIVKADNRLPENLKPKDITERALADSCTDCRRALSLFCVIMGRFGGNLALNLGTFGGVFIAGGIVPRFLEFFKASGFRAAFEDKGRFKEYVHDIPVYLIVHDNPGLLGSGAHLRQTLGHIL | soluble
MFVDRIVLSFRGAGLERANTCLRKGQRLRKACSHVFRPLCSSDLPVNLPTDLETKRVMKPPLAERESIWSYPRPPRVEPNTRHLRVVHNQVTIAETRRGYRVLEYSHPPSYYIPLDDIDLQYVMVSSKVRSTFCEFKGEATYYDVEVGWEVSEGAAWSYDFPTRAYRMLKDHIAFYPAKVDACWVDEYRVRPEPRSFYGGWVTPLVKGVYPEEDVEDDEDSSGGDGKDSATQ | soluble
MSLNYRFRFAPYQRPFKTPLQTHHGLWTVREGIMLSLRDERGRITQGEIVPLPWFGTETLEEAIAFCAAFGGNITSEQIAAIPDALPACQFGFETAQLNLASTENLVSLPPTKFCQLIRRSPTMFQDLQTLLQQGFRTFKLKIALDIPATEIALCQQILETLPADGRLRLDANGGLTLEQVKQWLDWGESQAKLEFIEQPLAPAHFSNLLQLNAEFQTQIALDESVSQVASLEHCYAQGWRGVFVIKLAIAGFPSRLQDVCQTKKLDFVLSTVFETAVGQRALLNFSQDFVQSRRALGMGGTQWIEGHHHHHH | soluble
MSLRLKWEGTFADYLEIIKENPMVAQSAHSRVFNMIKDSGIEEIDGRKKYSFFDRELFGLEESLERLVEEYFHPAAKRLDVRKRILLLMGPVSGGKSTLVTMLKKGLEAYTLTDNGAVYAIKGCPMHEDPLHLIPHHLRDDFYREYGIRIEGSLSPLNVMRLEEEYGGRIEDVKVERIFFSEDKRTGIGTFSPSDPKSQDIADLTGSIDFSTIAEYGSESDPRAYRFDGELNKANRGMMEFQEMLKCDEKFLWHLLSLTQEGNFKAGRFALISADELIVAHTNETEYRSFISNKKNEALHSRIIVMPVPYNLKVSEEERIYEKMIAESDVADVHIAPHTLKVAAMFSILTRLKEPKRSDIDLVKKMRLYDGESVEGYNSVDVEDMKKEYNDEGMSGIDPRYVINRISSTIIRKNMESINSLDVLRSLKEGLDQHPSISSEDRERYLNFISAARKEYDDIAKKEVQKAFVYSYEESAKTLMDNYLDNVEAYCNKNKLRDPLTGEEMNPDEKLMRSIEEQIGISENAKKAFREEILIRISAYARKGKRFDYNSHERLREAIQKKLFADLKDVVKITTSTKTPDEQQLKKVNEVVARLIDEHGYNSTSANELLKYVGSLLNREGHHHHHH | soluble
MSSNAQAIAGLEDRSAIPPTALKATLDHRLGEAAPSDYAKTLLASADAPTLRHLLGLGDAAVMDTGSGKNLDADLLDGYHGTYYLQWRNLQNTPQTYPPSAHQHASSDIPELASQLDTLVKKTGSLMTGSLQSQGTLIGDALGNGRIPALKIGNDCEFWDNNIPYAATFRSGTSPAIAQLFFGTSNHCYFGTSTKNTSTVIGAKTGLLWIETAGNYYYQQHDTTHVAFYKKNGGHAFFWRRSDSGGSGSTNEVQLMALEDNGNLSVKGTIVSAGGYAQGSSRKLKDIEGPLPYGLAEIEQLTPLIGRYKPSYTPDGRRRLFLEAEQLLDLMPETVNPEGIPFQGAYVPSVNLDQLLPVLVNAIAQLSAKVNALTDAPRHAEKLEHHHHHH | not soluble
MICSLFVDKVNKETYLCAMKQEYISRIRSFNRYYTKILGILNKYYLGSELGLPEVRIIQDVYLHPDRSSKDISNELNMDKGLLSRLLKQLEQKEYIFRKSTEKDNRMGLVNLTEKGCEVYYRLNTAANQSIERIFSHLEDRQLQRLVHCMDSIYKIINSVETGLTVDNNEPIVIRPIEESDNASIASVLRASVEEHGAPKVGTFYDDPHTDRMFQTFNIKGAEYWIVESNGVILGGGGFYPTKGLPHGYAELSKFHFRPELRGRGIGKRLLQFIEQRAVSAGYVYMYIVSYHQFGNAVSMYEKYGYEHIDNALDQSGLYQDAPFHMVKAL | not soluble
MLTIAMPKGRIFEEAVELLRRGDYALPPEFTESRKLVIDVPEENMRFILAKPMDVVTYVEHGVADLGIAGKDVLMEEERDVYELLDLQISRCHLAVAGLPGAKMNEIAPRVATKYPNIASTYFREQGEQVEIIRLNGSIELAPLIGLADRIVDIVSTGRTLRENGLVELERIAEVTSRLIVNPASYRLNGGDIERLVDRLAAVIPQP | not soluble
EHVEMLSAAGATVVAFDPLSEQLPQCDGLIIPGGFPEEHCDVLEQRADLKQQVCDVIAQGIPVHAECAGLLWLLSTLDGRPMLDVIPTHGAMGRRLTLGYRDAVVVHDSVIYRAGERVTGHEFHHTAIADSVVPGWDSAWGWRAWDGSPKVEGFVSGNVHASYLHVHPAAVPAAVRRFVEACAR | not soluble
MSSRKGKASAHISYEDENDDLIDEINTFHNKDRKVEKGAIHKRKTFNRPEEVLNVEAEASDSSEDDGSDFDDDDVNDITDNKWGKKRKDFYGTGFVDKDWGGMREEEMEDAQLEEEDALTRQKQIDKSTAAIADLFDDDDEDEEEKEETVEVETVLEFNEENARTKNKKIVKTLEQFEARKRIFDLVVKPLENVIKQIPKCALRSQLVYVAQTYASYLMNTAFLLNLRAKQFSNEKLDDPLVDIHPVVESLKRLEKKITECEDFLHSNSDHLDELKKWAESEPENMEELISKVGDVQLTKKNFGAIMNNNLSTITSSDNTSIHPHFTPMDADEKRKASDKVAKNREYAERRGKKKAKTSKTKNRRKVHAIEKRVKSQIGNVRREMQKYSGETSGIRASTIKSTKLIA | not soluble
MSLNKESLKEYLSSRYQGWSSFLNNVIFPIFGEDDFEDGFETELLESQPERRQLAEATGIRSIKQVGMMYVGVEPLQIFDVTVSDRVMMEHNRVNIQRLIRAVMDQFSCAFMLFHYEDDTRWDWRFTYCRKSGNKEESTDSKRYTFLLGPGQSCRTATDNFIALYDKRNSLEIKDIENAFNVEALSKEFFGKYKAQYEAFVNYMVDPTNGMRQHFIDTGFDHTGMAADKIRDREEKPIRDYVKKLLGRIVFLHFLQKKGWLGVPASKEWGEGDRDFMLNIFKNANERQKENFLDDILEDLFTEGLDRNRSDQGDLYDTKVEGFRNCRIPYLNGGLFERDILDKKPSHFPASYFNGLLTMLSQYNFTIDENDPNDAEVGVDPEMLGRIFENLLEDNKDKGAFYTPKEIVQYMCRESLIAYLQTDMREEDKECIRQFVTTHDASQLGELKEYIDQKLYDVKICDPAIGSGAFPMGLLRELFFCRSAIEPNIVENAANIKRHIIQNNIYGVDIERGAVDIARLRFWLSLIVDEKSPEALPNLDFKIMQGNSLLEQYKGVDLSTEGHHHHHH | soluble
MGSDKIHHHHHHMIEMTRMAACAAVHHDTQATQTGAAYAPAEQGGEPRESSASAYFWVGIDAGGSHCRALLTDDSGQVLGHGVAGPANPVNGVSQSQAAIMSAIDKALGAARLDKQYHRLIVGAGLAGLHLPKMQQVMNEWAHPFAAWHTTTDLHVAALGAHQGADGGVIILGTGFSSLANVKGQQILIGGHGFPINATCSGSWFGLEAVKAVLLDADGIGPGTSLTGKLLQGTNAMALAEQLMHANATDFARFAPQVFEQAGAGDAVSLSLIEQGATFINGVIRRLLATGIDSLSLVGGIAPLMQPWLAPDLSTRIRTAKASPEEGAILFARQCHVGNSRIQER | not soluble
MLAGLQKTTLVNFPRRVAAAVFLPGCNIRCPYCHNAELALASPSSFTANQESSNDYYELSEIYTFLERRKNLISGLVISGGEPFMSPALFELIERAKSLNLAVKIDTNGLFPERIEEVLRSSNLQPDMIAIDVKTSPERYGELLASKTDSAAKKAKTALLKTLDILKSNTEKTEVEYRTVLAPPLVSEDEIKKIASLLPKNARWRLAQFVPGTCLNPEWNSVEPYPLSQAQALTAIAKSLIPDTELR | not soluble
VADVVPLDHNNRILVSQGLKRMRSGKMRPGIRALFEVARRDWRKAQPFDMGFALGPRINAAGRLDDMSVGIACLLARDDSEAQELAAQLNNLNIERREIEQSMLQDALNDFPETLPSGQMTLVAYRDDFHQGVVGIV | not soluble
MATFKDFRNSVKPNWCPGCGDFSVQAAIQRAAANVGLNPDELAVISGIGCSGRISGYINSYGVHSIHGRALPIAQGVKMANRDLTVIASGGDGDGFAIGMGHTIHSIRRNIDITYIVMDNQIYGLTKGQTSPRSEAGFKTKSTPQGSIEPSLNVMEMALTAGATFVAQSFSSDLKELTQIIEAGINHKGFSLINVFSPCVTYNKVNTYDWFKENLTKLSTVEGYDPSNRMMAMQTLMENNGLVTGLIYQNTKQPSYQELVKGYSEEPLVKSDLNMDQKMFDELVAEFM | not soluble
MAHHHHHHSLSILVTRPSPAGEELVSRLRTLGQVAWHFPLIEFSPGQQLPQLADQLAALGESDLLFALSQHAVAFAQSQLHQQDRKWPRLPDYFAIGRTTALALHTVSGQKILYPQDREISEVLLQLPELQNIAGKRALILRGNGGRELIGDTLTARGAEVTFCECYQRCAIHYDGAEEAMRWQAREVTMVVVTSGEMLQQLWSLIPQWYREHWLLHCRLLVVSERLAKLARELGWQDIKVADNADNDALLRALQEG | soluble
RFLSIKTSWEDYFLEDDPMIIKTEEFKSVFGNDNYAAVLTDCDNTFTKENLELIRRLSNEMLDSISYAEKITSLTDIEFMIGNEEGMAIEQIVPEEIPSDSAGLAEIRRKAFLKPYIADRLVSKDGTLTWILLKLNPFPSDSVWNKGKGAVAPEMVVGRELEHIIRKPEYAALHPKGAGMPYMTDRKMAWVNRE | not soluble
